Tests used:
Assay in all cases: pull-down
[1] = target: T1, (His)9-tagged full length Srs2 (S. cerevisiae, UniProt P12954 1-1174)
T1 sequence: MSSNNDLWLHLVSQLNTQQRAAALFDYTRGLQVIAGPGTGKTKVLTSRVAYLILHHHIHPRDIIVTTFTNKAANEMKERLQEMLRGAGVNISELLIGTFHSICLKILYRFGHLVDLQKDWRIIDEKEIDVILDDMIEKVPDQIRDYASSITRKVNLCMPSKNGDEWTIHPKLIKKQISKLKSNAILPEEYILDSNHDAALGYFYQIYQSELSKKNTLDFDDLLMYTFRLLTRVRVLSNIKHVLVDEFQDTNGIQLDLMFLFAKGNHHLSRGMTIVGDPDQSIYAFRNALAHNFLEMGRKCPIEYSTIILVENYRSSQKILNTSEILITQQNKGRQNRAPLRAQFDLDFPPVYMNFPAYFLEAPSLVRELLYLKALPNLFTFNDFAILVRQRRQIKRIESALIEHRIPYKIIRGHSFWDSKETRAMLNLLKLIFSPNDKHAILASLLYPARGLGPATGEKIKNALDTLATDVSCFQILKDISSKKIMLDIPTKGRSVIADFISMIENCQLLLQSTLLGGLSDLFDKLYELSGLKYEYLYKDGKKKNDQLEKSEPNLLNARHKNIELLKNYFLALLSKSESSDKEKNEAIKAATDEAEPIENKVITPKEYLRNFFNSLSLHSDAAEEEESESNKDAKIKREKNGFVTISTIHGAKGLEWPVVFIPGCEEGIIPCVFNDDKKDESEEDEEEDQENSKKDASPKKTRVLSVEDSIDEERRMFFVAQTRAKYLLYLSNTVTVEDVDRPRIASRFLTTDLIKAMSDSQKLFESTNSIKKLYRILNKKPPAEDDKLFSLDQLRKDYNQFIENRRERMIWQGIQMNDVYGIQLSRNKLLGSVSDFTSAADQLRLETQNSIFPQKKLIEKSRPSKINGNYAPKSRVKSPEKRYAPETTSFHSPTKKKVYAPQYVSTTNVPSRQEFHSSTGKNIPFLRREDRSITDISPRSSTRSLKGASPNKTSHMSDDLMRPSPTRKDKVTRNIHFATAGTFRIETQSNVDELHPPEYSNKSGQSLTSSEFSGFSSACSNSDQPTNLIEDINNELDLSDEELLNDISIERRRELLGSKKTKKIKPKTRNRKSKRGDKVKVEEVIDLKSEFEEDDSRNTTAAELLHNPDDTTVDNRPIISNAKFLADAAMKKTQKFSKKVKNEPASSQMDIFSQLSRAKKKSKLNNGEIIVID

[2] = target: T2, (His)9-tagged srs2 1–890 (S. cerevisiae, UniProt P12954 1-890)
T2 sequence: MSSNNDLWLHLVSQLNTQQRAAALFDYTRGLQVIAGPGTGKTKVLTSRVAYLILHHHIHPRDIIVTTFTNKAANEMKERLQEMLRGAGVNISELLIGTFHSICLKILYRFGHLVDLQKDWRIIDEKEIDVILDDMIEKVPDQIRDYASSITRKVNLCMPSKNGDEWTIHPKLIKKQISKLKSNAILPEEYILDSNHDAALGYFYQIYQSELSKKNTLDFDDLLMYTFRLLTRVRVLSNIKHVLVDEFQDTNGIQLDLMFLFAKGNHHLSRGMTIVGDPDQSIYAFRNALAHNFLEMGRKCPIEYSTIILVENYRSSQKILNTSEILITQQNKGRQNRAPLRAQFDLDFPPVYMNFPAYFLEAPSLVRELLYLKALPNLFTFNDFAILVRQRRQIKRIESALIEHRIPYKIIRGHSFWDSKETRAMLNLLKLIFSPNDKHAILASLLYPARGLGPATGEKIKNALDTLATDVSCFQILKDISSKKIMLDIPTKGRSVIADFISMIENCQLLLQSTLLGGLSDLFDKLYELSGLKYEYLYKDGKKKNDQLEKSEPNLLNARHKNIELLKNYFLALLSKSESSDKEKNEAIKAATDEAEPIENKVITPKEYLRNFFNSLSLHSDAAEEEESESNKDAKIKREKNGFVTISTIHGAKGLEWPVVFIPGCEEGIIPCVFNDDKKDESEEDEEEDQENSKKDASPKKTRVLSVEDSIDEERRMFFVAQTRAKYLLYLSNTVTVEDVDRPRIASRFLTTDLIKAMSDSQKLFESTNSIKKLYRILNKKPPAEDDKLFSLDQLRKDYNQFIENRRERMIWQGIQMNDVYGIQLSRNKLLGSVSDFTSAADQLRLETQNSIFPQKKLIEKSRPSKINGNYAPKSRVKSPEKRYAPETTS

[3] = target: T3, (His)9-tagged srs2 1–910 (S. cerevisiae, UniProt P12954 1-910)
T3 sequence: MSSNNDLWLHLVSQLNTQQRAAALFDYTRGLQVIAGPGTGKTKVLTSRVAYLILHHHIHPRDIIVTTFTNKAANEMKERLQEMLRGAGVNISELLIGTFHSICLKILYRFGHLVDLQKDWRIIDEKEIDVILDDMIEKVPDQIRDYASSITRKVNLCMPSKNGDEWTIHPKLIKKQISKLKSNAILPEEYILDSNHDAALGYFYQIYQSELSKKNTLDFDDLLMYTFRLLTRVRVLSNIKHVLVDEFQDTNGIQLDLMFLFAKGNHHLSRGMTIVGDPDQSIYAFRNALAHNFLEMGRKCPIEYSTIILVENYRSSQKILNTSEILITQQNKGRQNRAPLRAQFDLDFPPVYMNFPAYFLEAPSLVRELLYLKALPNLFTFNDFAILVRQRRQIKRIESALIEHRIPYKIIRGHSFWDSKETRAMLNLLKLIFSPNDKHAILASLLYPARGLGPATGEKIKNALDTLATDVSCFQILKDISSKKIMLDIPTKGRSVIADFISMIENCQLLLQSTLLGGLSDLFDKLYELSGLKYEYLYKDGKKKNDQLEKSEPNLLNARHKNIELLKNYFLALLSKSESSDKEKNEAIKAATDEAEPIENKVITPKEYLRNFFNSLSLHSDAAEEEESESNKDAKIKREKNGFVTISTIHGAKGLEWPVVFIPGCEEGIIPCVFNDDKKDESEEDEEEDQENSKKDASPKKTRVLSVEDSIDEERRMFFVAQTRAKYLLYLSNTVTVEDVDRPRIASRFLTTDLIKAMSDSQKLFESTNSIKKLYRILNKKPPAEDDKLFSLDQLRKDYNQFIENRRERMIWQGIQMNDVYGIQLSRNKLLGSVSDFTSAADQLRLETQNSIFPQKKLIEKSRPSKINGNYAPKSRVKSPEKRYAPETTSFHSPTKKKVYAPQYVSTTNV

[4] = target: T4, (His)9-tagged srs2 1–998 (S. cerevisiae, UniProt P12954 1-998)
T4 sequence: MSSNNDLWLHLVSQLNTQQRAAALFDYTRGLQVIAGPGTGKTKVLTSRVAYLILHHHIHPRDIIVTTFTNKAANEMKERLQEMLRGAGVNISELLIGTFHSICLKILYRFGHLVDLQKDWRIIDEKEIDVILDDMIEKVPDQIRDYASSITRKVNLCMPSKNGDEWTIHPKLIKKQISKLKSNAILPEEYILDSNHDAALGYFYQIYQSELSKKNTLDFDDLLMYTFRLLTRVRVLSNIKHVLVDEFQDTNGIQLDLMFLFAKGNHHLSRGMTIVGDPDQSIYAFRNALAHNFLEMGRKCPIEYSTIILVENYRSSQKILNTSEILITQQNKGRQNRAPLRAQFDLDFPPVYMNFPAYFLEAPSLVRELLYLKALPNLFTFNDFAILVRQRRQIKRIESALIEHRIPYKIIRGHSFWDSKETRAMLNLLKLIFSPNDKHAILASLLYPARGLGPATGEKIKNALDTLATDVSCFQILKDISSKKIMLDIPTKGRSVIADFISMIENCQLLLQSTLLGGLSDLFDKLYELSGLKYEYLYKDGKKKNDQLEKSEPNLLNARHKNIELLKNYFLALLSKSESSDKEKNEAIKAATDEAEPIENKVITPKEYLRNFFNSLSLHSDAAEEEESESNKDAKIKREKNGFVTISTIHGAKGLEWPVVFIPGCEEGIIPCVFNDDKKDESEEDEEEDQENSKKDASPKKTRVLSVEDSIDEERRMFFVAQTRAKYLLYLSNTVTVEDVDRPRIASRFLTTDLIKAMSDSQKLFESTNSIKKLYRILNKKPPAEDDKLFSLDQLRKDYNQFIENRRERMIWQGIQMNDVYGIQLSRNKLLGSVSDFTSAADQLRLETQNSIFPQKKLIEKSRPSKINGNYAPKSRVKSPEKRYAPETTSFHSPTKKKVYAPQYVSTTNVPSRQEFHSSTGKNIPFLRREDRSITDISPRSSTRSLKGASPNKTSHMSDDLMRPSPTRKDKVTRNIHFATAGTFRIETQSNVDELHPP

Measured: binding result

B1: Rad51 (natural protein)
chain: MSQVQEQHISESQLQYGNGSLMSTVPADLSQSVVDGNGNGSSEDIEATNGSGDGGGLQEQAEAQGEMEDEAYDEAALGSFVPIEKLQVNGITMADVKKLRESGLHTAEAVAYAPRKDLLEIKGISEAKADKLLNEAARLVPMGFVTAADFHMRRSELICLTTGSKNLDTLLGGGVETGSITELFGEFRTGKSQLCHTLAVTCQIPLDIGGGEGKCLYIDTEGTFRPVRLVSIAQRFGLDPDDALNNVAYARAYNADHQLRLLDAAAQMMSESRFSLIVVDSVMALYRTDFSGRGELSARQMHLAKFMRALQRLADQFGVAVVVTNQVVAQVDGGMAFNPDPKKPIGGNIMAHSSTTRLGFKKGKGCQRLCKVVDSPCLPEAECVFAIYEDGVGDPREEDE
binds: [1] | [2] | [3] | [4]

From article PMC2777448 (Nucleic Acids Research, 2009)
